{
  "source": "paper PMC7085636",
  "about": "“A Graphene-PEDOT:PSS Modified Paper-Based Aptasensor for Electrochemical Impedance Spectroscopy Detection of Tumor Marker”",
  "target": "carcinoembryonic antigen (CEA) (UniProt P06731 35-685)",
  "sequence (P06731 35-685)": "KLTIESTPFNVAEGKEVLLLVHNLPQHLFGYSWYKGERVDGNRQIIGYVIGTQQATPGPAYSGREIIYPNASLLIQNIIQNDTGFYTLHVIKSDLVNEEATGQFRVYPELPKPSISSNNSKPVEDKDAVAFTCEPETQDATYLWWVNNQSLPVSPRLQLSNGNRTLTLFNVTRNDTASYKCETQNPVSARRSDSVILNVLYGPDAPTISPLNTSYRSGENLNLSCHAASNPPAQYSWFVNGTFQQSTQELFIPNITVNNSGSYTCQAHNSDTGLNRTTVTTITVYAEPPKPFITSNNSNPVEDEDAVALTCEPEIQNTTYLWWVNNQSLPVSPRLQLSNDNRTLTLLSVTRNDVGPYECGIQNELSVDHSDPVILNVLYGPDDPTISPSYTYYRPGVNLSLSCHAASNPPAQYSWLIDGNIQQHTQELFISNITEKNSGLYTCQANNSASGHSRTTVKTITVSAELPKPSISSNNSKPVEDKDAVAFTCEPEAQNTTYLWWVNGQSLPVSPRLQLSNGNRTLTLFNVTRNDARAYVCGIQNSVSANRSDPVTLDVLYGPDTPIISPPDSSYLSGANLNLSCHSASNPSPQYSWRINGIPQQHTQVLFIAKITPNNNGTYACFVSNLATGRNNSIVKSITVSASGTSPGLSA",
  "test": "electrochemical impedance spectroscopy (aptasensor); PBS; linear 0.77-14 ng/mL, LOD 0.45 ng/mL, saturated above 21 ng/mL; PBS pH 7.4 or undiluted human serum; surface blocked with 1% BSA; K3[Fe(CN)6] and KCl listed as reagents; binding temperature not stated",
  "conditions": "protein: commercial",
  "data": [
    {"binder": "GACGATAGCGGTGACGGCACAGACGTCCCGCATCCTCCG (ssDNA, 5'-NH2)", "note": "[CEA DNA aptamer]", "values": [
      {"measurement": "binding result", "value": "binds"}
    ]}
  ]
}
